# Measurements: US8440628B2, “Medical compositions containing ghrelin” (Daiichi Sankyo Company, Limited, priority 2002, dated 2013)
# Key:
# Format in all cases: physicochemical
# [1] = Stability of human ghrelin in Britton-Robinson buffer solutions of various pH at 40°C (Example 3); settings: pH range of 3 to 6, stored at 40° C. for 1 day (FIG. 3)
# Experimental: Human ghrelin, which is one of the ghrelins, was dissolved in the Britton-Robinson buffer solutions which is adjusted by combining 0.04M phosphoric acid-acetic acid-boric acid aqueous solution and 0.2M sodium hydrate aqueous solution in appropriate ratio, having pH of 2.1, 3.1, 4.0, 5.0, 6.0, 7.0 and 7.9 to obtain an aqueous solution containing human ghrelin in the concentration of about 0.15 μmol/mL (0.5 mg/mL). The obtained solution was filled in brownish glass ampoules and the ampoules were sealed with fire. For the calculation of kinetic constant, the certain degrees of degradation products have to be occurred in the aqueous solution of the ghrelins, and therefore, the ampoules were stored at 40±1° C., which was severe conditions for storage. The concentration (residual ratio) of human ghrelin was conducted by HPLC with time. At the same time, the pH of the solution was measured and it was confirmed that there was no significant changes of pH in solution.
# The kinetic constants in each pH solution were calculated from the sequential change of the residual ratio, and the results were shown in FIG. 2.
# [2] = Stability of human ghrelin in pH-adjusted purified water at 25°C (Example 7); settings: for Peak area ratio to total peak area: 25±2°C
# Experimental: Human ghrelin was dissolved in the purified water with about 0.03 μmol/mL (0.1 mg/mL). […] This solution was divided into quarter, and one portion was kept alone and the pH values of the remaining three portions were adjusted to pH 1.8 (with 17 mM of hydrochloric acid), pH 3.9 (with 0.20 mM of hydrochloric acid) and pH 7.8 (with 0.24 mM of sodium hydroxide) respectively, by adding along with hydrochloric acid or sodium hydroxide aqueous solution.
# [3] = Stability of human ghrelin in 0.1M HCl and Mcllvain buffer solutions of various pH at 25°C (Example 2, HPLC peak area ratio)
# Experimental: Human ghrelin was dissolved in the following aqueous solutions in the concentration of about 0.15 μmol/mL (0.5 mg/mL).
# 0.1M HCl aqueous solution (pH: 1.1)
# The pH was adjusted with 0.1M citric aqueous acid and 0.2M dibasic sodium phosphate aqueous solution.
# Each solution were stored at 25±2° C. for 8, 24, 48 and 72 hours respectively, and the obtained solutions were detected by HPLC analysis in comparison to the solutions before storage. […] No significant changes of pH in solution before storage and after storage were observed.
substance,measurement,setting,value
"desacylated human ghrelin (GSSFLSPEHQRVQQRKESKKPPAKLQPR; Ghrelin-28 desacyl; UniProt Q9UBU3 24-51, looked up) [Desacyl compound, degradation product obtained from the hydrolytic cleavage of octanoyl group of human ghrelin]",Production of the degradation product in human ghrelin solution,[1],inhibited
same,Production of the degradation product in human ghrelin solution,"[2]; aqueous solution of pH 3.9 and 4.7, 25±2°C, up to 3 days",inhibited
same,Peak area ratio to total peak area,"[2]; human ghrelin 0.1 mg/mL in purified water adjusted to pH 1.8 with hydrochloric acid, 1 day after",1.46%
same,Peak area ratio to total peak area,"[2]; human ghrelin 0.1 mg/mL in purified water adjusted to pH 1.8 with hydrochloric acid, before storage",0.12%
same,Peak area ratio to total peak area,"[2]; human ghrelin 0.1 mg/mL in purified water adjusted to pH 3.9 with hydrochloric acid, 1 day after",0.09%
same,Peak area ratio to total peak area,"[2]; human ghrelin 0.1 mg/mL in purified water adjusted to pH 3.9 with hydrochloric acid, 3 days after",0.14%
same,Peak area ratio to total peak area,"[2]; human ghrelin 0.1 mg/mL in purified water adjusted to pH 3.9 with hydrochloric acid, before storage",0.07%
same,Peak area ratio to total peak area,"[2]; human ghrelin 0.1 mg/mL in purified water adjusted to pH 7.8 with sodium hydroxide, 1 day after",3.65%
same,Peak area ratio to total peak area,"[2]; human ghrelin 0.1 mg/mL in purified water adjusted to pH 7.8 with sodium hydroxide, 3 days after",9.84%
same,Peak area ratio to total peak area,"[2]; human ghrelin 0.1 mg/mL in purified water adjusted to pH 7.8 with sodium hydroxide, before storage",0.33%
same,Peak area ratio to total peak area,"[2]; human ghrelin 0.1 mg/mL in purified water, pH 4.7 (not adjusted), 1 day after",0.15%
same,Peak area ratio to total peak area,"[2]; human ghrelin 0.1 mg/mL in purified water, pH 4.7 (not adjusted), 3 days after",0.28%
same,Peak area ratio to total peak area,"[2]; human ghrelin 0.1 mg/mL in purified water, pH 4.7 (not adjusted), before storage",0.06%
same,Production of the degradation product in human ghrelin solution,"[3]; Mcllvain buffer, pH range of 3.0 to 5.0, 25±2°C, up to 72 hours",inhibited
same,Peak area ratio to total peak area,"[3]; human ghrelin 0.5 mg/mL in 0.1M HCl aqueous solution, pH 1, 25±2°C, 8 hr. after",4.88%
same,Peak area ratio to total peak area,"[3]; human ghrelin 0.5 mg/mL in 0.1M HCl aqueous solution, pH 1, 25±2°C, 8 hr. after, listed as desacyl compound",more than 3%
same,Peak area ratio to total peak area,"[3]; human ghrelin 0.5 mg/mL in 0.1M HCl aqueous solution, pH 1, 25±2°C, 24 hr. after",13.31%
same,Peak area ratio to total peak area,"[3]; human ghrelin 0.5 mg/mL in 0.1M HCl aqueous solution, pH 1, 25±2°C, 48 hr. after",24.63%
same,Peak area ratio to total peak area,"[3]; human ghrelin 0.5 mg/mL in 0.1M HCl aqueous solution, pH 1, 25±2°C, 72 hr. after",34.17%
same,Peak area ratio to total peak area,"[3]; human ghrelin 0.5 mg/mL in 0.1M HCl aqueous solution, pH 1, 25±2°C, before storage",0.27%
same,Peak area ratio to total peak area,"[3]; human ghrelin 0.5 mg/mL in Mcllvain buffer, pH 2, 25±2°C, 8 hr. after",0.34%
same,Peak area ratio to total peak area,"[3]; human ghrelin 0.5 mg/mL in Mcllvain buffer, pH 2, 25±2°C, 24 hr. after",0.89%
same,Peak area ratio to total peak area,"[3]; human ghrelin 0.5 mg/mL in Mcllvain buffer, pH 2, 25±2°C, 48 hr. after",1.76%
same,Peak area ratio to total peak area,"[3]; human ghrelin 0.5 mg/mL in Mcllvain buffer, pH 2, 25±2°C, 48 hr. after, listed as desacyl compound",more than 1%
same,Peak area ratio to total peak area,"[3]; human ghrelin 0.5 mg/mL in Mcllvain buffer, pH 2, 25±2°C, 72 hr. after",2.59%
same,Peak area ratio to total peak area,"[3]; human ghrelin 0.5 mg/mL in Mcllvain buffer, pH 2, 25±2°C, before storage",0.10%
same,Peak area ratio to total peak area,"[3]; human ghrelin 0.5 mg/mL in Mcllvain buffer, pH 3, 25±2°C, 8 hr. after",0.20%
same,Peak area ratio to total peak area,"[3]; human ghrelin 0.5 mg/mL in Mcllvain buffer, pH 3, 25±2°C, 24 hr. after",0.38%
same,Peak area ratio to total peak area,"[3]; human ghrelin 0.5 mg/mL in Mcllvain buffer, pH 3, 25±2°C, 48 hr. after",0.67%
same,Peak area ratio to total peak area,"[3]; human ghrelin 0.5 mg/mL in Mcllvain buffer, pH 3, 25±2°C, 72 hr. after",0.98%
same,Peak area ratio to total peak area,"[3]; human ghrelin 0.5 mg/mL in Mcllvain buffer, pH 3, 25±2°C, before storage",0.10%
same,Peak area ratio to total peak area,"[3]; human ghrelin 0.5 mg/mL in Mcllvain buffer, pH 4, 25±2°C, 8 hr. after",0.12%
same,Peak area ratio to total peak area,"[3]; human ghrelin 0.5 mg/mL in Mcllvain buffer, pH 4, 25±2°C, 24 hr. after",0.21%
same,Peak area ratio to total peak area,"[3]; human ghrelin 0.5 mg/mL in Mcllvain buffer, pH 4, 25±2°C, 48 hr. after",0.37%
same,Peak area ratio to total peak area,"[3]; human ghrelin 0.5 mg/mL in Mcllvain buffer, pH 4, 25±2°C, 72 hr. after",0.51%
same,Peak area ratio to total peak area,"[3]; human ghrelin 0.5 mg/mL in Mcllvain buffer, pH 4, 25±2°C, before storage",0.09%
same,Peak area ratio to total peak area,"[3]; human ghrelin 0.5 mg/mL in Mcllvain buffer, pH 5, 25±2°C, 8 hr. after",0.14%
same,Peak area ratio to total peak area,"[3]; human ghrelin 0.5 mg/mL in Mcllvain buffer, pH 5, 25±2°C, 24 hr. after",0.24%
same,Peak area ratio to total peak area,"[3]; human ghrelin 0.5 mg/mL in Mcllvain buffer, pH 5, 25±2°C, 48 hr. after",0.45%
same,Peak area ratio to total peak area,"[3]; human ghrelin 0.5 mg/mL in Mcllvain buffer, pH 5, 25±2°C, 72 hr. after",0.61%
same,Peak area ratio to total peak area,"[3]; human ghrelin 0.5 mg/mL in Mcllvain buffer, pH 5, 25±2°C, before storage",0.10%
same,Peak area ratio to total peak area,"[3]; human ghrelin 0.5 mg/mL in Mcllvain buffer, pH 6, 25±2°C, 8 hr. after",0.28%
same,Peak area ratio to total peak area,"[3]; human ghrelin 0.5 mg/mL in Mcllvain buffer, pH 6, 25±2°C, 24 hr. after",0.70%
same,Peak area ratio to total peak area,"[3]; human ghrelin 0.5 mg/mL in Mcllvain buffer, pH 6, 25±2°C, 48 hr. after",1.33%
same,Peak area ratio to total peak area,"[3]; human ghrelin 0.5 mg/mL in Mcllvain buffer, pH 6, 25±2°C, 48 hr. after, listed as desacyl compound",more than 1%
same,Peak area ratio to total peak area,"[3]; human ghrelin 0.5 mg/mL in Mcllvain buffer, pH 6, 25±2°C, 72 hr. after",1.97%
same,Peak area ratio to total peak area,"[3]; human ghrelin 0.5 mg/mL in Mcllvain buffer, pH 6, 25±2°C, before storage",0.10%
same,Peak area ratio to total peak area,"[3]; human ghrelin 0.5 mg/mL in Mcllvain buffer, pH 7, 25±2°C, 8 hr. after",0.92%
same,Peak area ratio to total peak area,"[3]; human ghrelin 0.5 mg/mL in Mcllvain buffer, pH 7, 25±2°C, 24 hr. after",2.70%
same,Peak area ratio to total peak area,"[3]; human ghrelin 0.5 mg/mL in Mcllvain buffer, pH 7, 25±2°C, 24 hr. after, listed as desacyl compound",more than 1%
same,Peak area ratio to total peak area,"[3]; human ghrelin 0.5 mg/mL in Mcllvain buffer, pH 7, 25±2°C, 48 hr. after",5.22%
same,Peak area ratio to total peak area,"[3]; human ghrelin 0.5 mg/mL in Mcllvain buffer, pH 7, 25±2°C, 72 hr. after",7.67%
same,Peak area ratio to total peak area,"[3]; human ghrelin 0.5 mg/mL in Mcllvain buffer, pH 7, 25±2°C, before storage",0.16%
same,Peak area ratio to total peak area,"[3]; human ghrelin 0.5 mg/mL in Mcllvain buffer, pH 8, 25±2°C, 8 hr. after",3.92%
same,Peak area ratio to total peak area,"[3]; human ghrelin 0.5 mg/mL in Mcllvain buffer, pH 8, 25±2°C, 8 hr. after, listed as desacyl compound",more than 3%
same,Peak area ratio to total peak area,"[3]; human ghrelin 0.5 mg/mL in Mcllvain buffer, pH 8, 25±2°C, 24 hr. after",10.57%
same,Peak area ratio to total peak area,"[3]; human ghrelin 0.5 mg/mL in Mcllvain buffer, pH 8, 25±2°C, 48 hr. after",19.54%
same,Peak area ratio to total peak area,"[3]; human ghrelin 0.5 mg/mL in Mcllvain buffer, pH 8, 25±2°C, 72 hr. after",27.26%
same,Peak area ratio to total peak area,"[3]; human ghrelin 0.5 mg/mL in Mcllvain buffer, pH 8, 25±2°C, before storage",0.47%
